Assay results from US5847076A, “Regulators of the proteasome” (Board of Regents, The University of Texas System, priority 1993, dated 1998).
Ends that are not written are not given here.

B1: PI31: inhibitor protein of the proteasome purified from bovine red blood cells, Mr=31,000 subunit (protein, UniProt Q3SX30 2-270, looked up)
Proteasome inhibitor PI31 …: AGLEVLFASAAPAITCAQDALVCFLHWEVVTHGYYGLGAGDQPGPNDKKSELLPVEWNSNKDLYVLRYESKDGSRKLLVKAVTVENSMIINVLEHGSQQVSDLTLNLNDYIDSEHLVDFHRVYKNSEELRSRIVSGIITPIHEQWEKANLSPHREFPPATAREVDPLRIHPQHPHTSRQPTWCDPLGPFAVGGEDLDPFGCRRGGMIVDPLRSGFPRALIDPSSGLPNRLPPGAVPPGARFDPFGPIGTSPSGPNPDHLPPPGYDDMYL

Assays:
[1] = molecular target: T1, proteasome activation by PA700; experiment: Inhibition of proteasome activation by PA700 by C18 peptide; format: biochemical; settings: for inhibition of proteasome activation by PA700: FIG. 27; for effect of peptide alone on proteasome activity: no activator
T1 construct: from tissue
Method: Activation of the proteasome by PA700 was performed in the presence of the indicated concentrations of purified C18 peptide.
(§1) Therefore, this peptide or a compound with similar properties may be used to block the action of the proteasome in intact cells. Such a compound or analogs having similar binding activity may be used to control accelerated rates of intracellular protein degradation. The peptide has the sequence: Acetyl-KNFEKLKKPRGETKGMIY (SEQ ID NO. 3). The N-terminal lysine may be acetylated if needed for stability. […] Therefore, the C-terminal Ile-Tyr amino acids or their functional equivalents appear to be important for binding of the 18-mer to the proteasome and for inhibition of the activation of the proteasome by activating factors PA28 and PA700. An equivalent of the 18-mer may comprise less than 18 amino acids or may comprise functionally equivalent amino acid replacements which allow similar binding activity.

[2] = molecular target: T2, proteasome activation by PA28; experiment: Inhibition of PA28-activated proteasome by carboxy-terminal peptide; format: biochemical; settings: 0.5 μg proteasome, 1 μg PA28 (FIG. 26)
T2 construct: from tissue
Method: Proteasome activity in the absence of PA28 was 1.2 units/assays. Assays contained 0.5 μg of proteasome and 1 μg of PA28.
as §1

[3] = molecular target: T3, proteasome; experiment: Binding of PA28 carboxy-terminal peptides to the proteasome
T3 construct: from tissue
Source text: as §1

[4] = test system: proteasome (latent and active forms); settings: cited from earlier work
[5] = listed as 18 amino acid peptide

Row | Molecule | inhibition of proteasome activation by PA700 [1] | inhibition of proteasome activation by PA700 [1, 5] | effect of peptide alone on proteasome activity [1] | effect of peptide alone on proteasome activity [1, 5] | inhibition of proteasome activation by PA28 [2] | inhibition of proteasome activation by PA28 [2, 5] | binding to the proteasome [3] | inhibition of peptidase and protease activities of the proteasome [4]
1 | Acetyl-KNFEKLKKPRGETKGMIY (Ac-KNFEKLKKPRGETKGMIY) [C18, 18 amino acid peptide corresponding to the carboxyterminal 18 amino acids of PA28] | competitively inhibits proteasome activation by PA700 | competitively inhibits the binding and activation of proteasome activator, PA700 | had no effect on baseline proteasome activity | does not activate the proteasome | inhibition of PA28-activated proteasome | competitively inhibits binding and activation of PA28 | does bind to it | 
2 | B1 |  |  |  |  |  |  |  | inhibited all of the peptidase and protease activities of both the latent and active forms of the proteasome by a non-competitive mechanism
